Results published in the Immune Epitope Database (IEDB).

Assays:
HLA-A*01:01 [1] = assay: IEDB peptide-MHC binding, purified MHC/competitive/radioactivity; filed as Kd, often an IC50 or EC50 that approximates it; ≥ and ≤ were set here for values at or beyond the usual limits of such assays
HLA-A*30:02 = assay: as above
HLA-A*23:01 = assay: as above
HLA-A*24:02 = assay: as above
HLA-A*29:02 = assay: as above
HLA-A*26:01 = assay: as above
HLA-A*32:01 = assay: as above
HLA-B*15:01 [2] = assay: as above
HLA-A*01:01 [3] = assay: IEDB peptide-MHC binding, purified MHC/direct/fluorescence; filed as Kd, often an IC50 or EC50 that approximates it; ≥ and ≤ were set here for values at or beyond the usual limits of such assays; conditions: source organism: SARS-CoV1
HLA-B*58:01 = assay: as above; conditions: source organism: SARS-CoV1
HLA-A*03:01 = assay: as above; conditions: source organism: SARS-CoV1
HLA-B*15:01 [4] = assay: as above; conditions: source organism: SARS-CoV1
HLA-A*30:01 = assay: IEDB peptide-MHC binding, purified MHC/competitive/radioactivity; filed as Kd, often an IC50 or EC50 that approximates it; ≥ and ≤ were set here for values at or beyond the usual limits of such assays; conditions: source organism: Mammarenavirus choriomeningitidis
HLA-B*07:02 = assay: as above; conditions: source organism: Dengue virus 4 Philippines/H241/1956
HLA-B*51:01 = assay: as above; conditions: source organism: Dengue virus 4 Philippines/H241/1956
[5] = source organism: SARS coronavirus Tor2
[6] = source organism: Vaccinia virus WR
[7] = source organism: Mammarenavirus machupoense
[8] = source organism: Mammarenavirus choriomeningitidis
[9] = source organism: Mammarenavirus guanaritoense
[10] = source organism: Mammarenavirus lassaense

Sequence	Kd (HLA-A*01:01 [1]; [5]) [nM]	Kd (HLA-A*30:02; [5]) [nM]	Kd (HLA-A*23:01; [5]) [nM]	Kd (HLA-A*24:02; [5]) [nM]	Kd (HLA-A*29:02; [5]) [nM]	Kd (HLA-A*26:01; [5]) [nM]	also measured
AFIDTIKSL	≥ 78100	13600	5010	10200	2950	≥ 34200	–
AILLVAVSF	–	–	–	–	–	–	Kd (HLA-A*32:01; source organism: Dengue virus 2 Jamaica/1409/1983): 12800 nM
ASITAFKSM	–	–	–	–	–	–	Kd (HLA-B*15:01 [2]; [6]): 25 nM
AYSNRNRFL	≥ 78100	≥ 54700	658	92.2	6640	≥ 77900	–
CADGTRHTY	–	39.8	≥ 67600	≥ 37700	963	2780	Kd (HLA-A*01:01 [3]): 438 nM; Kd (HLA-B*58:01): 1210 nM; Kd (HLA-A*03:01): 9670 nM; Kd (HLA-B*15:01 [4]): 1260 nM
CGDPSSLDY	–	–	–	–	–	–	Kd (HLA-A*01:01 [1]; [7]): 6.78 nM; Kd (HLA-A*30:02; [7]): 870 nM; Kd (HLA-A*23:01; [7]): ≥ 77700 nM; Kd (HLA-A*24:02; [7]): ≥ 77500 nM; Kd (HLA-A*29:02; [7]): 4730 nM; Kd (HLA-A*26:01; [7]): ≥ 74600 nM
CWFADTNLI	–	–	–	–	–	–	Kd (HLA-A*23:01; [7]): 88.6 nM; Kd (HLA-A*24:02; [7]): 101 nM; Kd (HLA-A*29:02; [7]): 1290 nM
DTSNTGRAEL	–	–	–	–	–	–	Kd (HLA-A*01:01 [1]; [8]): ≥ 50200 nM; Kd (HLA-A*30:02; [8]): 7180 nM; Kd (HLA-A*30:01): ≥ 24500 nM; Kd (HLA-A*32:01; [8]): ≥ 69900 nM; Kd (HLA-A*29:02; [8]): ≥ 71400 nM; Kd (HLA-A*26:01; [8]): 16000 nM
EDAQPGLLSY	–	–	–	–	–	–	Kd (HLA-A*01:01 [1]; [9]): ≥ 70400 nM; Kd (HLA-A*30:02; [9]): 17600 nM; Kd (HLA-A*23:01; [9]): ≥ 70000 nM; Kd (HLA-A*24:02; [9]): ≥ 70300 nM; Kd (HLA-A*29:02; [9]): 8210 nM; Kd (HLA-A*26:01; [9]): ≥ 25800 nM
EGFMRKQKY	–	–	–	–	–	–	Kd (HLA-A*01:01 [1]; [8]): ≥ 49600 nM; Kd (HLA-A*30:02; [8]): ≥ 53500 nM; Kd (HLA-A*23:01; [8]): ≥ 56100 nM; Kd (HLA-A*24:02; [8]): ≥ 77500 nM; Kd (HLA-A*29:02; [8]): ≥ 78900 nM; Kd (HLA-A*26:01; [8]): ≥ 77900 nM
ESDGKPQKV	–	–	–	–	–	–	Kd (HLA-A*01:01 [1]; [10]): 188 nM; Kd (HLA-A*30:02; [10]): ≥ 76900 nM; Kd (HLA-A*23:01; [10]): ≥ 77700 nM; Kd (HLA-A*24:02; [10]): ≥ 77500 nM; Kd (HLA-A*29:02; [10]): ≥ 78900 nM; Kd (HLA-A*26:01; [10]): ≥ 77900 nM
FFTYLCGFI	≥ 43100	≥ 78900	13700	18800	822	≥ 77900	–
FFVYENAFL	≥ 78100	≥ 96800	6780	9050	≥ 107000	≥ 32700	–
FQPHQLWTTL	–	–	–	–	–	–	Kd (HLA-A*32:01; source organism: Dengue virus 1 Brazil/97-11/1997): 761 nM
FSAVGNICY	0.34	28.5	≥ 77800	≥ 51600	7.97	409	–
GINKRSTPF	–	–	–	–	–	–	Kd (HLA-B*15:01 [2]; source organism: Vaccinia virus Copenhagen): 0.723 nM
GPMVAGGLLL	–	–	–	–	–	–	Kd (HLA-B*07:02): 36.3 nM; Kd (HLA-B*51:01): ≥ 69600 nM
GSIIQFPNTY	1050	545	≥ 70000	≥ 70300	462	1880	–
GTINRILVI	–	–	–	–	–	–	Kd (HLA-A*32:01; [6]): 14.5 nM
GYTMHANYIF	≥ 44100	7590	16.4	11.1	407	≥ 41100	–
HMLEFLYSF	–	–	–	–	–	–	Kd (HLA-A*32:01; [6]): 0.296 nM
HTSSMRGVY	85.2	0.131	≥ 77800	≥ 77600	8.21	4.78	–
ILLNNPNLF	–	–	–	–	–	–	Kd (HLA-A*23:01; [9]): 423 nM; Kd (HLA-A*24:02; [9]): 793 nM; Kd (HLA-A*29:02; [9]): 46.7 nM
